B1: KRT18 (parent)
chain: KSQDLAKIMADIRAQYDELARKNR
B2: NECAB1 (parent)
chain: NLDTEELCEYFSQHLGEYENVLAA

Variants of: B1
Experiment: protein stability index of a GFP-peptide fusion (GPS, HEK-293T) (PSI 1-6); higher = more stable
Details: c terminus: a fixed tail appended
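Note: lentivirally expressed fusions sorted by FACS into six bins by GFP to DsRed ratio, PSI derived from sequencing read proportions per bin multiplied by bin number.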

Protein stability index, by site and new letter:
R24: V 2.57; K 3.46; I 2.1; Q 2.95; L 1.69; H 2.81; T 3.13; N 3.13; W 2.13; G 3.57; P 3.16; Y 2.01; M 3.07; S 2.61

Variants of: B2
Experiment: as above
Details: c terminus: a fixed tail appended

Protein stability index, by site and new letter:
F11: N 5.01; D 4.87; P 5.13; H 4.26; T 4.82; W 3.85; V 3.9; I 3.59; C 4.03; K 5.08; G 4.55; M 3.48; R 5.19; E 5.25
D3: S 2.55; V 1.53; E 3.24; H 2.11; G 1.48; N 1.64; K 1.86; T 2.57; R 1.59; P 3.14; F 2.36; M 1.88; Y 1.94; L 2.01; I 1.41; C 2.12; W 2.12
A24: S 3.21; C 2.25; K 2.69; H 3.35; Q 3.12; L 2.82; R 1.82; I 2.26; P 3.43; Y 2.59; W 2.27
C8: E 4.36; D 4.39; Q 3.52; F 3.26; P 4.44; K 3.9; W 3.28; S 3.83; L 2.86; G 4.56; N 4.18; A 2.98; V 3.04; M 3.41
G16: H 1.48; W 2.29; A 2.24; I 2.14; M 1.99; S 2.48; Q 2.71; L 1.9; V 2.07; T 2.04; P 2.03; N 1.95; E 2.04; D 2.29; K 1.81
L22: G 4.3; P 4.25; R 4.39; Q 4.36; W 2.55; V 3.26; F 1.86; S 4.64; I 2.53; H 4.32
E5: M 1.63; L 1.89; Y 1.69; A 1.56; H 2.1; W 1.98; D 3.04; P 3.13; V 2.1; K 1.94; I 1.99
Y18: H 4.47; I 2.07; V 3.14; N 4.27; M 3.6; K 4.71; Q 4.61; L 2.3; F 2.31; G 4.46; W 1.8; C 4.03
E19: T 2.07; F 1.97; S 2.11; H 1.97; W 1.82; N 2.87; K 2.67; Y 1.93; A 1.66; P 2.91; L 1.82; G 2.34; M 2.18; D 3.98; C 1.83; V 1.53
E6: D 2.53; G 1.81; H 2; W 2.23; A 2.27; V 2.38; P 3.82; L 1.74; F 2.41; C 2.68; Q 1.64
T4: F 2.32; Y 2.97; Q 3.59; C 2.64; P 3.56; V 2.12; R 3.05; A 2.75; L 2.15; N 3.62; S 3.32; E 4.15; H 4.26; I 2.41
E17: R 2.76; Q 1.66; M 2.17; I 2.84; H 1.54; D 2.88; S 2.99; G 2.81; F 2.33; A 2.12; W 2.11; N 2.14; Y 2.65
N20: R 2.25; W 2.03; S 3.05; G 3.22; T 1.78; M 1.93; Y 3.07; D 2.71; E 2.74; I 1.59; V 4.33; K 1.94; C 2.05; H 2.67; L 1.23; A 2.03; P 2.32
L7: N 4.63; E 4.77; V 4.59; H 4.63; M 4.26; T 4.42; Y 3.94; Q 4.13; S 4.53; A 4.43; P 4.29; G 4.79; D 4.92; C 3.85
A23: K 2.17; T 3.06; E 4.5; V 2.21; W 1.91; D 4.52; P 3.65; C 2.46; N 3.98; R 2.51; Y 2.2; L 1.75
N1: H 3.35; T 3.22; E 3.7; S 3.93; L 2.53; Y 1.83; F 1.68; K 3.33; G 3.68; M 3.17; W 1.71; Q 3.41; V 3.12
Q13: W 2.1; T 3.27; H 2.32; E 2.83; N 2.89; K 2.36; S 2.87; P 3.71; Y 2.2; L 2.08; F 2.27; I 2.19; A 2.5; C 2.06
L2: D 4.72; A 2.99; Y 2.78; F 3.05; T 3.52; Q 4.12; P 1.8; V 1.79; S 4.11; K 3.9; C 2.25; M 3.46; I 2.23; E 4.97
L15: N 4.48; D 4.63; Y 2.93; K 4.02; C 2.92; E 4.45; R 3.1; A 3.36; F 2.94; G 4.38; W 2.65; I 1.97; M 3.07; S 3.47
Y10: D 4.99; W 2.22; I 3.97; F 3.17; G 4.44; S 5.13; V 4.24; P 4.47; K 4.33; Q 4.67; R 4.08; L 4.08; M 4.18; H 4.12; A 4.25; T 4.59; C 4.46; N 4.58
H14: E 4.47; A 3.31; T 4.11; R 2.12; G 3.81; Y 2.19; N 2.55; I 1.87
V21: G 4.32; S 3.88; C 3.01; L 2.76; R 2.97; H 3.14; I 1.83; F 2.08; T 3.43; W 1.68; K 2.07
E9: H 2.38; Q 2.05; S 2.04; R 1.97; W 1.77; A 1.99; G 2.97; V 1.93; I 2.47; F 1.8; C 2.55; D 3.15; M 1.9; N 2.21; K 2.25; Y 1.76
S12: N 3.07; R 2; E 3.83; W 3.15; Q 2.55; V 2.28; H 2.88; T 2.91; L 1.92; I 2.68; A 2.59

Source: the supplement of paper PMC10567573
